Earlier results in PMC11809415, “Structure of the F-tractin–F-actin complex” (The Journal of Cell Biology, 2025).
Values joined by “and” are separate entries in the source; they are usually repeats but may differ in a detail not shown here. Equal entries are not always repeated.

Biological target: F-actin (Oryctolagus cuniculus) (UniProt P68135)

Kd: 14.9 µM and 5.8 µM
Substance: Lifeact (from UniProt Q08641)
